Substrate: CC(=O)N[C@@H](CCC(=O)O)C(=O)O
Experiment: purified protein, by the assay type
Details: pH 7.5

B1: ScNAGK (Synechocystis sp. PCC 6803 substr. Kazusa) (protein)
chain: MSSTQDYIGEEAATRVKILSEALPYIQHFAGRTVVVKYGGAAMKDSNLKDKVIRDIVFMASVGIRPVVVHGGGPEINTWLDKVGIEPQFKDGLRVTDAATMDIVEMVLVGRVNKELVNLINQAGGKAVGLCGKDGQLMTARTMTNKDVGFVGEVSSVDARVVETLVKSGYIPVISSVAADEFGQAHNINADTCAGELAAALGAEKLILLTDTRGILRDYKDPSTLIHKLDIQQARELIGSGIVAGGMIPKVTCCVRSLAQGVRAAHILDGRLPHALLLEVFTDLGIGSMIVASGYDL
Km: 16.23 mM

Source: PMC5768801, “The PII signaling protein from red algae represents an evolutionary link between cyanobacterial and Chloroplastida PII proteins” (Scientific Reports, 2018)
